One assay has as its target T1, Cyno GDF15 Fc (cyno, UniProt G7PWZ3 193-308).
T1 construct: also called cyno GDF15-Fc fusion
T1 sequence: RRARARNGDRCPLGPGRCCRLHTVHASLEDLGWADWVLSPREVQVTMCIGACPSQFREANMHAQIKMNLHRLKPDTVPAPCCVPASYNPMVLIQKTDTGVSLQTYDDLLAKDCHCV
As to the kind of experiment: Octet BLI, IgG on AHC tip, avid. On the procedure: (§1) Briefly, ForteBio affinity measurements were performed by loading IgGs on-line onto AHC sensors. Sensors were equilibrated off-line in assay buffer for 30 min and then monitored on-line for 60 seconds for baseline establishment. Sensors with loaded IgGs were exposed to 100 nM antigen for 3 minutes, and afterwards were transferred to assay buffer for 3 min for off-rate measurement. All kinetics were analyzed using the 1:1 binding model.

For a further assay, the target named is T2, Rat GDF-15 Fc (rat, UniProt Q9Z0J6 189-303, limits assumed).
T2 sequence (looked up): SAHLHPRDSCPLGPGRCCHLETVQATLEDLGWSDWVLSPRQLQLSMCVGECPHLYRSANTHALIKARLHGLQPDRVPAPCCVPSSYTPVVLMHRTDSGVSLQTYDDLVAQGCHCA
As to the kind of experiment: Octet BLI, IgG on AHC tip, avid. On the procedure:
as §1

The target of the next assay is T3, Mouse GDF15 Fc (mouse, UniProt Q9Z0J7 189-303, limits assumed).
T3 construct: also called mouse GDF15Fc fusion
T3 sequence (looked up): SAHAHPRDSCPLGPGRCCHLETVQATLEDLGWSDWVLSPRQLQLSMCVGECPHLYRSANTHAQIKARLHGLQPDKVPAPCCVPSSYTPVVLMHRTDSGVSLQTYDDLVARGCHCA
As to the kind of experiment: Octet BLI, IgG on AHC tip, avid. On the procedure: as §1

Another assay deals with T4, GDF15 (Homo sapiens (Human), UniProt Q99988 30-308).
T4 sequence: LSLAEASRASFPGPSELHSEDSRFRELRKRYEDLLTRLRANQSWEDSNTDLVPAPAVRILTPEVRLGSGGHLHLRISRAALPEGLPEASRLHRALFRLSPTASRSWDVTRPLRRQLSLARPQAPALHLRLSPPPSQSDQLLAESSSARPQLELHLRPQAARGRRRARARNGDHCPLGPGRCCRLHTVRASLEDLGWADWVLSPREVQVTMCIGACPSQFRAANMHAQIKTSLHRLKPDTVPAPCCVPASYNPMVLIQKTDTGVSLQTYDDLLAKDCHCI
As to the kind of experiment: cell-based or functional assay.

In the next assay the target is T5, Human BMP10 (human, UniProt O95393 317-424).
T5 sequence (looked up): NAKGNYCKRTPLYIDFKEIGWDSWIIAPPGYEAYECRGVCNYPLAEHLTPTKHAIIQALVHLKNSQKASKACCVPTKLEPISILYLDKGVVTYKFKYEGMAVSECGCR
As to the kind of experiment: Octet BLI, IgG on tip, avid.

In another assay the target is T6, GDF10 (UniProt P55107 369-478).
T6 sequence (looked up): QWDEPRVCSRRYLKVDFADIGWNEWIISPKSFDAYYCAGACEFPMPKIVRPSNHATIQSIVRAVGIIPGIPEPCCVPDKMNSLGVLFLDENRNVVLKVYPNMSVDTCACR
As to the kind of experiment: Octet BLI, IgG on tip, avid.

For assay [1], the target named is T7, Human BMP9 (human, UniProt Q9UK05 320-429).
T7 sequence (looked up): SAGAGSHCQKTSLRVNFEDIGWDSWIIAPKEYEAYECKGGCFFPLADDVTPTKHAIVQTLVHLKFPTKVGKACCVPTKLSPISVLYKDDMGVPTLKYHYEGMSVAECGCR
As to the kind of experiment: Octet BLI, IgG on tip, avid.

For a further assay, the target named is T8, Human Activin A Fc (human, UniProt P08476 311-426).
T8 sequence (looked up): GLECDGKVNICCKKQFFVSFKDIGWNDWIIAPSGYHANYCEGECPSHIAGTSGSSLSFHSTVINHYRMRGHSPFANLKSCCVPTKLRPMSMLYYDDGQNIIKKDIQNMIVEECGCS
As to the kind of experiment: Octet BLI, IgG on tip, avid.

The next assay deals with T9, Human Activin B (human, UniProt P09529 293-407).
T9 construct: Also used for the Activin B ligand of the ActRIIB/SMAD reporter assay, where the species is not restated
T9 sequence (looked up): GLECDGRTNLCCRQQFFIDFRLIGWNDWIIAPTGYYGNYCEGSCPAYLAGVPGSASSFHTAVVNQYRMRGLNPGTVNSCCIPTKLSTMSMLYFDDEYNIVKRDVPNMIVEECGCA
As to the kind of experiment: Octet BLI, IgG on tip, avid.

Another assay deals with T10, GDNF (UniProt P39905 78-211).
T10 sequence (looked up): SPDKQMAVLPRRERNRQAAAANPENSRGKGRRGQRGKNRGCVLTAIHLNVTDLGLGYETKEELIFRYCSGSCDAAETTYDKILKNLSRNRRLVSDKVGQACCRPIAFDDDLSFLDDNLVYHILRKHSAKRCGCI
As to the kind of experiment: Octet BLI, IgG on tip, avid.

Another assay concerns the target T11, GDF11 (UniProt O95390 299-407).
T11 construct: Also the GDF-11 ligand of the ActRIIB/SMAD reporter assay
As to the kind of experiment: Octet BLI, IgG on tip, avid.

For the next assay, the target named is GDF8 (UniProt O14793 267-375). As to the kind of experiment: Octet BLI, IgG on tip, avid.
Assay [2] has as its target T7, Human BMP9. As to the kind of experiment: Octet BLI, IgG on tip, avid; P.F. = binder with poor fit.

T11 sequence (O95390 299-407 limits assumed): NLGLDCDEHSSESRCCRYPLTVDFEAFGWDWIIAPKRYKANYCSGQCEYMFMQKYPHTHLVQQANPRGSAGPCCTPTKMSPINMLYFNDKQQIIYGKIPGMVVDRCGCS

B1: Clone E IgG (antibody, V domains shown)
VH: QVQLVQSGAEVKKPGASVKVSCKASGYTFTSYGINWVRQAPGQGLEWMGWITAYSGDTNYAQKLQGRVTMTTDTSTSTAYMELRSLRSDDTAVYYCARGPGQYADVDVWGQGTMVTVSS
VL: DIQMTQSPSSVSASVGDRVTITCRASQGISSWLAWYQQKPGKAPKLLIYAASSLQSGVPSRFSGSGSGTDFTLTISSLQPEDFATYYCQQANSFPITFGGGTKVEIKR
notes: IgG format
On to B1, for which the results for the Kd with Cyno GDF15 Fc, with Rat GDF-15 Fc and in the assay with Mouse GDF15 Fc were 0.178 nM, 0.451 nM and 0.194 nM, respectively. The “GDF15 - GFRAL RET pERK IC50 (pM)” value with GDF15 was found to be 35 pM. In addition, the “GDF15 - GFRAL-RET Luciferase IC50 (pM)” value in the assay with GDF15 worked out at 190 pM. The binding result in the assay with Human BMP10, in the assay with GDF10, with Human BMP9 [1], with Human Activin A Fc, with Human Activin B and in the assay with GDNF was “no binding (tested: 100 nM)” each time. Moreover, the binding result with GDF11 and with GDF8 was “no binding (tested: 100 nM)” each time.

B2: Clone I IgG (antibody, V domains shown)
VH: QVQLVQSGAEVKKPGASVKVSCKASGYTFTDEGINWVRQAPGQGLEWMGWITAYSGDTVYAQKLQGRVTMTTDTSTSTAYMELRSLRSDDTAVYYCARGPGQYADVDVWGQGTMVTVSS
VL: DIQMTQSPSSVSASVGDRVTITCRASQGISSWLAWYQQKPGKAPKLLIYAASSLQSGVPSRFSGSGSGTDFTLTISSLQPEDFATYYCQQANSFPITFGGGTKVEIKR
notes: IgG format
In the case of B2, the dissociation constant Kd was 3.04 nM in the assay with Cyno GDF15 Fc, 1.18 nM with Rat GDF-15 Fc and 0.152 nM in the assay with Mouse GDF15 Fc. Also, the “GDF15 - GFRAL RET pERK IC50 (pM)” value in the assay with GDF15 is 34.5 pM. Moreover, the “GDF15 - GFRAL-RET Luciferase IC50 (pM)” value in the assay with GDF15 was determined as 79.3 pM. Further, the binding result with Human BMP10, with GDF10, in the assay with Human BMP9 [1], with Human Activin A Fc, with Human Activin B and with GDF11 was “no binding (tested: 100 nM)” in each case. Further, the binding result with GDF8 is given as “no binding (tested: 100 nM)”.

B3: Clone N IgG (antibody, V domains shown)
VH: QVQLVQSGAEVKKPGASVKVSCKASGYTFTDYGIFWVRQAPGQGLEWMGWITAYSGDTHYAQKLQGRVTMTTDTSTSTAYMELRSLRSDDTAVYYCVRDTQYGGSPYWGQGTLVTVSS
VL: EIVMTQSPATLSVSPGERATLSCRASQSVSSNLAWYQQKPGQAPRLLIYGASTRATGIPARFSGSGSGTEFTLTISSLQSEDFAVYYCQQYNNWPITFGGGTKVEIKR
notes: IgG format
Turning to B3, the dissociation constant Kd with Cyno GDF15 Fc amounted to 0.219 nM; with Rat GDF-15 Fc, 0.358 nM; with Mouse GDF15 Fc, 0.219 nM; in the assay with GDNF, 2.56 nM. For the same molecule, the “GDF15 - GFRAL RET pERK IC50 (pM)” value with GDF15 worked out at 99.7 pM. In addition, the binding result with Human BMP10, with GDF10, with Human BMP9 [1], with Human Activin A Fc, with Human Activin B and with GDF11 was “no binding (tested: 100 nM)” each time. In the assay with GDF8, the binding result is on record as “no binding (tested: 100 nM)”.

B4: Clone B IgG (antibody, V domains shown)
VH: QVQLQESGPGLVKPSQTLSLTCTVSGGSISSGGIYWTWIRQHPGKGLEWIGAIAYSGSTYYNPSLKSRVTISVDTSKNQFSLKLSSVTAADTAVYYCARGIEYQHFDYWGQGTLVTVSS
VL: not shown
notes: IgG format; AAGA mutation in the Fc region stated for the FcRn test; also called GDF15 antibody agent Clone B
For B4, the binding result with Human BMP9 [2] is listed as “binds”; with GDF10, “no binding (tested: 100 nM)”; with GDNF it was “no binding (tested: 100 nM)”; with GDF11, “no binding (tested: 100 nM)”; with GDF8, “no binding (tested: 100 nM)”. Besides, the Kd amounted to 0.422 nM with Cyno GDF15 Fc, 0.621 nM in the assay with Rat GDF-15 Fc, 0.358 nM with Mouse GDF15 Fc and 145 nM with Human Activin B. For the same molecule, the “GDF15 - GFRAL RET pERK IC50 (pM)” value with GDF15 was 104 pM. Moreover, the “GDF15 - GFRAL-RET Luciferase IC50 (pM)” value with GDF15 came to 66.2 pM.

B5: Clone C IgG (antibody, V domains shown)
VH: QVQLQESGPGLVKPSQTLSLTCTVSGGSISSGGYYWSWIRQHPGKGLEWIGAIVYSGHTYYNPSLKSRVTISVDTSKNQFSLKLSSVTAADTAVYYCARGVEYQHFSLWGQGTLVTVSS
VL: not shown
notes: IgG format; AAGA mutation in the Fc region stated for the FcRn test; also called GDF15 antibody agent Clone C
For the molecule B5, the binding result with Human BMP9 [2] is given as “binds”; with Human BMP10, “no binding (tested: 100 nM)”; with GDNF, “no binding (tested: 100 nM)”; in the assay with GDF11 it was “no binding (tested: 100 nM)”; in the assay with GDF8, “no binding (tested: 100 nM)”. The Kd is 0.0862 nM in the assay with Cyno GDF15 Fc; 0.437 nM in the assay with Rat GDF-15 Fc; 0.331 nM with Mouse GDF15 Fc; 6.48 nM in the assay with Human Activin A Fc; 132 nM with Human Activin B. Further, the “GDF15 - GFRAL RET pERK IC50 (pM)” value with GDF15 stood at 145 pM. Also, the “GDF15 - GFRAL-RET Luciferase IC50 (pM)” value in the assay with GDF15 came to 39.6 pM.

B6: Clone Q IgG (antibody, V domains shown)
VH: QVQLQESGPGLVKPSQTLSLTCTVSGGSISSGGIYWTWIRQHPGKGLEWIGAIAYSGSTYYNPSLKSRVTISVDTSKNQFSLKLSSVTAADTAVYYCARGIEYQHFDYWGQGTLVTVSS
VL: not shown
notes: IgG format
Take B6: the binding result in the assay with Human BMP9 [2] is given as “binds”; with Human BMP10, “no binding (tested: 100 nM)”; in the assay with GDF10 it was “no binding (tested: 100 nM)”; in the assay with GDNF it was “no binding (tested: 100 nM)”; with GDF11, “no binding (tested: 100 nM)”; with GDF8, “no binding (tested: 100 nM)”. In the assay with Human Activin B, this molecule came in with an equilibrium dissociation constant (Kd) of 172 nM.

B7: Clone R IgG (antibody, V domains shown)
VH: QVQLQESGPGLVKPSQTLSLTCTVSGGSISSGGIYWTWIRQHPGKGLEWIGAIAYSGSTYYNPSLESRVTISVDTSKNQFSLKLSSVTAADTAVYYCARGIEYQHFDYWGQGTLVTVSS
VL: not shown
notes: IgG format
With B7, the binding result with Human BMP9 [2] is recorded as “binds”; with GDF10, “no binding (tested: 100 nM)”; with GDNF, “no binding (tested: 100 nM)”; with GDF11, “no binding (tested: 100 nM)”; with GDF8 it was “no binding (tested: 100 nM)”. The same molecule displayed an equilibrium dissociation constant (Kd) with Human Activin B of 188 nM.

For the origin of these results see patent US20250019427A1 (BYOMASS, published 2025).
